{"source": "patent US20240271152A1", "about": "“ENHANCING NITROGEN FIXATION WITH FUN” (Aarhus Universitet, published 2024)", "key": {"[1]": {"molecular_target": "T1, FUN DNA-binding domain (bZIP) (Lotus japonicus)", "T1 chain": "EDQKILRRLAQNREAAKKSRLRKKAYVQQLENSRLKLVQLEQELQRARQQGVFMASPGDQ", "test": "EMSA; same buffer, 37 C", "conditions": "chain copies: 2; label: 5' 6-FAM", "experimental": "(§1) The purified FUN DNA binding domain (residues 178-237) was incubated with the probes at 37° C. for 60 min in EMSA buffer (25 mM Tris-HCl pH8.0, 80 mM NaCl, 35 mM KCl, 5 mM MgCl₂). After incubation, the reaction mixture was electrophoresed in 6% native polyacrylamide gel and then labelled DNA was detected with the Typhoon scanner (Fujifilm). Probes without 6-FAM-label served as competitors, while probes with mutation in the core binding sites (TGACG) served as mutants.\n(§2) The promoter region of Nrt2.1 had four putative FBSs (P1-P4), the promoter region of Ho1 had two FBSs (P1 and P2), the promoter region of NAC094 had one FBS (P1), the promoter region of Nrt3.1 had three FBSs (P1, P2, and P3), and the promoter region of AS1 had one FBS (P1), all of which are illustrated in FIG. 2C. EMSA was conducted to test whether the FUN DNA-binding domain bound probes representing the FBSs."}, "[2]": {"molecular_target": "the molecule itself", "test": "confocal imaging of FUN-GFP in N. benthamiana leaves infiltrated with 500 µM ZnCl2"}, "[3]": {"molecular_target": "T1, FUN DNA-binding domain (bZIP)", "test": "EMSA; same buffer, 37 C; printed reverse strand identical to forward", "conditions": "chain copies: 2; label: 5' 6-FAM", "experimental": "as §1, §2"}, "[4]": {"molecular_target": "T1, FUN DNA-binding domain (bZIP)", "test": "EMSA; 25 mM Tris pH 8.0, 80 mM NaCl, 35 mM KCl, 5 mM MgCl2, 37 C", "conditions": "chain copies: 2; label: 5' 6-FAM", "experimental": "as §1, §2"}}, "data": [{"binder": "HO1 P2 (dsDNA) DNA 1: TCGAGCCTGCCTTGAGCTTGTCTTCTCCAT DNA 2: ATGGAGAAGACAAGCTCAAGGCAGGCTCGA", "values": [{"measurement": "binding result", "setting": "[1]", "result": "binds"}]}, {"binder": "NRT3.1 P2 (dsDNA) DNA 1: GGTTTTTATTTTTGACCTCAGAGGGGATCG DNA 2: CGATCCCCTCTGAGGTCAAAAATAAAAACC", "values": [{"measurement": "binding result", "setting": "[1]", "result": "binds"}]}, {"binder": "NRT3.1 P3 (dsDNA) DNA 1: AGACCTATTTTCTGACTCAATGTAGAGGGT DNA 2: ACCCTCTACATTGAGTCAGAAAATAGGTCT", "values": [{"measurement": "binding result", "setting": "[1]", "result": "binds"}]}, {"binder": "HO1 P1 (dsDNA) DNA 1: TGTAATAACTTGTGAGCGAAGCAGGGATCC DNA 2: GGATCCCTGCTTCGCTCACAAGTTATTACA", "values": [{"measurement": "binding result", "setting": "[1]", "result": "binds"}]}, {"binder": "NRT3.1 P1 (dsDNA) DNA 1: CGTTCATTAATATGACATCAGAATTTCTCT DNA 2: AGAGAAATTCTGATGTCATATTAATGAACG", "values": [{"measurement": "binding result", "setting": "[1]", "result": "binds"}]}, {"binder": "NAC094 P1 (dsDNA) DNA 1: AGGAGAGGTTTGTGAGCATCAGCAAAGTGT DNA 2: ACACTTTGCTGATGCTCACAAACCTCTCCT", "values": [{"measurement": "binding result", "setting": "[1]", "result": "binds"}]}, {"binder": "FUN-GFP (FUN fused to green fluorescent protein) (other, Expressed inside plant cells, where it is nuclear (N. benthamiana leaves, Lotus hairy roots), not on the cell surface; also called pro35S:FUN-GFP; proUbi:FUN-GFP; not shown: eGFP fused to the FUN CDS) MQGFKTAQGNSHLYCHPSSFLLRGDDTSRNHTRFSDLGELQHSSNIFQQDDAVDLSSSNLPCSMYSVKSCNVVGGGSNMQYGTLNTNLGSAEIVSTGAGCLETGQQLMYHKEISMATMPMGNGHVENWADSSGMADNSQQTDDTSTDVDTDDKIQSNRDKRGTHMVVHSRDQTKSKPEDQKILRRLAQNREAAKKSRLRKKAYVQQLENSRLKLVQLEQELQRARQQGVFMASPGDQSHLAVGGANGASAFDMEYAHWVDEHQRLLTDLRSALNSQMGDNELHLLVDGVMAHYDELFRLKSLGAKADVFHMHSGLWKTPAERCFMWLGGFRSTELLKIVKNHLEPLTEPQLMGIDNLLRCAQQGEDALTQGMEALQQALVDTLSSTSLGPAGAGNVADYMGQMAIAMGKLATLESFLHSADLVKQQTLQQLQRILTTRQMARALLVRNDYISRLRALSSLWLARPRESSVMSSLPPSNIE", "values": [{"measurement": "binding result", "setting": "[2]", "result": "binds"}]}, {"binder": "AS1 P1 (dsDNA) DNA 1: CATGTGGGCTTTTGACGAAGGTTCAAGTAG DNA 2: CTACTTGAACCTTCGTCAAAAGCCCACATG", "values": [{"measurement": "binding result", "setting": "[3]", "result": "binds"}]}, {"binder": "NRT2.1 P4 (dsDNA) DNA 1: AGATTTAAGTTGACGTATTAATGACAATGA DNA 2: TCATTGTCATTAATACGTCAACTTAAATCT", "values": [{"measurement": "binding result", "setting": "[1]", "result": "binds"}]}, {"binder": "NRT2.1 P1 (dsDNA) DNA 1: ACAAGTAGCTTATGACGTACGACATATAGT DNA 2: ACTATATGTCGTACGTCATAAGCTACTTGT", "values": [{"measurement": "binding result", "setting": "[4]", "result": "binds"}]}]}
